Source: patent US20040248232

Columns and labels:
[1] = test system: Z★Val-Lys-Met-MCA substrate
[2] = test system: APP substrate Ser-Glu-Val-Lys-Met-Asp-Ala-Glu-Phe

Sequence of Peak I β-secretase endoprotease activity from bovine chromaffin vesicles, identified as bovine cathepsin L (27 kDa cysteine protease band) (chain, as listed by the source): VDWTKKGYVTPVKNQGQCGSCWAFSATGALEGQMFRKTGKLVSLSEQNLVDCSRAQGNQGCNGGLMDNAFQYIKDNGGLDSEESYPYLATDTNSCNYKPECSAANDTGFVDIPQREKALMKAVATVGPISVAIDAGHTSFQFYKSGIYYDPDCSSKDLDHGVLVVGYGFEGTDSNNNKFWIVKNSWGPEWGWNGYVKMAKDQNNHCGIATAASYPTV

Substance: Peak I β-secretase endoprotease activity from bovine chromaffin vesicles, identified as bovine cathepsin L (27 kDa cysteine protease band)
- cleavage of the Z★Val-Lys-Met-MCA substrate, products analyzed by EMS [1]: the Peak I activity cleaved the Lys-Met bond in the Z★Val-Lys-Met-MCA substrate
- cleavage of the APP substrate, products analyzed by EMS [2]: the majority of Peak I activity cleaved the Lys-Met bond

Substance: Peak II-A β-secretase endoprotease activity from bovine chromaffin vesicles, identified as bovine cathepsin B (31 kDa cysteine protease band)
- fluorescent MCA released by cleavage of the substrate [1]: the majority of the endoprotease activity in Peak II-A and Peak II-B cleaved the β-secretase scissile bond
- cleavage of the APP substrate, products analyzed by EMS [2]: the majority of the Peaks II-A and II-B activities cleaved the Met-Asp bond

Substance: Peak II-B β-secretase endoprotease activity from bovine chromaffin vesicles, identified as bovine cathepsin B (31 kDa cysteine protease band)
- fluorescent MCA released by cleavage of the substrate [1]: the majority of the endoprotease activity in Peak II-A and Peak II-B cleaved the β-secretase scissile bond
- cleavage of the APP substrate, products analyzed by EMS [2]: the majority of the Peaks II-A and II-B activities cleaved the Met-Asp bond
